# Source: patent publication US20250000950A1, “PRESERVED FORMULATIONS” (ELI LILLY AND COMPANY, priority 2021, published 2025)
# B1: insulin efsitora alfa (protein)
# chain: FVNQHLCGSHLVEALELVCGERGFHYGGGGGGSGGGGGIVEQCCTSTCSLDQLENYCGGGGGQGGGGQGGGGQGGGGGECPPCPAPPVAGPSVFLFPPKPKDTLMISRTPEVTCVVVDVSHEDPEVQFNWYVDGVEVHNAKTKPREEQFNSTFRVVSVLTVVHQDWLNGKEYKCKVSNKGLPAPIEKTISKTKGQPREPQVYTLPPSREEMTKNQVSLTCLVKGFYPSDIAVEWESNGQPENNYKTTPPMLDSDGSFFLYSKLTVDKSRWQQGNVFSCSVMHEALHNHYTQKSLSLSPG
# modifications: homodimer
# notes: dimer of an insulin receptor agonist fused to a human IgG Fc region
# Columns and labels:
# Isoelectric point of BIF = assay type: physicochemical
# [1] = Onset of melting temperature (Tm, Onset) by differential scanning calorimetry (DSC); assay type: physicochemical; details: BIF 2 mg/mL
# Experimental: Biophysical developability/high-throughput profiling studies are conducted on 2 mg/mL formulations of BIF in different buffer matrices and pH conditions. The onset of melting temperature Tm (Tm, Onset) was measured using differential scanning calorimetry (DSC). Tm, Onset is the temperature at which a folded protein starts to lose its native conformation, i.e., the higher the Tm, Onset, the less susceptible a protein to denaturation.
molecule,measurement,setting,value
B1,pl (isoelectric point) of BIF,Isoelectric point of BIF,≈ 6.1
same,"Tm, Onset","[1]; Citrate 10 mM, NaCl 25 mM, pH 5.5",60.29 °C
same,"Tm, Onset","[1]; Citrate 10 mM, NaCl 25 mM, pH 6.0",63.58 °C
same,"Tm, Onset","[1]; Citrate 10 mM, NaCl 25 mM, pH 6.5",65.61 °C
same,"Tm, Onset","[1]; Citrate 10 mM, NaCl 25 mM, pH 7.0",66.32 °C
same,"Tm, Onset","[1]; Citrate 10 mM, NaCl 150 mM, pH 5.5",59.59 °C
same,"Tm, Onset","[1]; Citrate 10 mM, NaCl 150 mM, pH 6.0",62.78 °C
same,"Tm, Onset","[1]; Citrate 10 mM, NaCl 150 mM, pH 6.5",64.76 °C
same,"Tm, Onset","[1]; Citrate 10 mM, NaCl 150 mM, pH 7.0",65.41 °C
same,"Tm, Onset","[1]; Phosphate 10 mM, NaCl 25 mM, pH 6.0",62.86 °C
same,"Tm, Onset","[1]; Phosphate 10 mM, NaCl 25 mM, pH 6.5",64.06 °C
same,"Tm, Onset","[1]; Phosphate 10 mM, NaCl 25 mM, pH 7.0",66.39 °C
same,"Tm, Onset","[1]; Phosphate 10 mM, NaCl 25 mM, pH 7.5",66.90 °C
same,"Tm, Onset","[1]; Phosphate 10 mM, NaCl 150 mM, pH 6.0",63.36 °C
same,"Tm, Onset","[1]; Phosphate 10 mM, NaCl 150 mM, pH 6.5",64.42 °C
same,"Tm, Onset","[1]; Phosphate 10 mM, NaCl 150 mM, pH 7.0",65.79 °C
same,"Tm, Onset","[1]; Phosphate 10 mM, NaCl 150 mM, pH 7.5",66.11 °C
